In test [1] the target is Glycoprotein Ib-IX complex captured from platelet lysates (human (endogenous in platelets)) (UniProt P07359). Briefly: biomembrane force probe.
In test [2] the target is T1, Human placenta type III collagen (human, UniProt P02461 154-1221, covalently modified with maleimide-PEG3500-NHS for coupling to beads).
T1 sequence (looked up): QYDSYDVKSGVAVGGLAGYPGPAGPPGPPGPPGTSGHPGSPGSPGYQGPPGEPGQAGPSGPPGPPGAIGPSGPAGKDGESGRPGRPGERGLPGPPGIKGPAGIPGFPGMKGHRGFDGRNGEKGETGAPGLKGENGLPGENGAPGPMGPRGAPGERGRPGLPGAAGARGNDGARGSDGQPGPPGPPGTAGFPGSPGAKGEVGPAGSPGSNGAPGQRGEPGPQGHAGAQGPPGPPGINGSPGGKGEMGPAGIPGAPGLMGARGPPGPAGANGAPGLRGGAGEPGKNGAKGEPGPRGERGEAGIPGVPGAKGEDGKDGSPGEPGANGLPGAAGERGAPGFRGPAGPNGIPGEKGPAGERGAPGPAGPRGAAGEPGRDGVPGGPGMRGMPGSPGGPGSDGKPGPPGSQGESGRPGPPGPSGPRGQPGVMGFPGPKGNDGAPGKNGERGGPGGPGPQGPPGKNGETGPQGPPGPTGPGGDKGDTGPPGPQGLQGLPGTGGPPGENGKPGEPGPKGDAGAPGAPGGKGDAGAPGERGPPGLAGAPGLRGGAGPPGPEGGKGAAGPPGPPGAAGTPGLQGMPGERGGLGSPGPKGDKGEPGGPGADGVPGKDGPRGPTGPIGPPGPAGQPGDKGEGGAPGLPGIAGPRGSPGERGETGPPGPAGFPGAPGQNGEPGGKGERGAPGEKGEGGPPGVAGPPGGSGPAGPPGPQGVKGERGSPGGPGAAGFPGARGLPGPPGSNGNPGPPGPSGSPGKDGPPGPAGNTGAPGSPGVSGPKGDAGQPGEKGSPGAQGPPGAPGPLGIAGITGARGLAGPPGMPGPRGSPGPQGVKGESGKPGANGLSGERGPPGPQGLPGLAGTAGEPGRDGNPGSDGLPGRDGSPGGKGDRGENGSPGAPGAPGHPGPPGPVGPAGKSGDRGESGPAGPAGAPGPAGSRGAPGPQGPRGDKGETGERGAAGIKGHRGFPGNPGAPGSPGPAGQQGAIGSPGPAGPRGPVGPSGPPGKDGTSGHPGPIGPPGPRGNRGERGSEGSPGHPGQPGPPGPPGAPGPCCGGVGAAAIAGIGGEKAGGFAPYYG
Briefly: biomembrane force probe.

Turning to “Plasma von Willebrand factor (from UniProt P04275 764-2813) (natural protein)”, the bond lifetime at the peak force in test [1] turned out to be 3.1 s. For “Recombinant wild-type monomeric VWF 1238-A1 (residues 1238-1471) (from UniProt P04275 1238-1471) (domain or fragment)”, in test [1], the bond lifetime at the peak force amounted to 1.5 s.

B1: Recombinant wild-type monomeric VWF A3 domain (residues 1687-1874) (domain or fragment)
chain: SQPLDVILLLDGSSSFPASYFDEMKSFAKAFISKANIGPRLTQVSVLQYGSITTIDVPWNVVPEKAHLLSLVDVMQREGGPSQIGDALGFAVRYLTSEMHGARPGASKAVVILVTDVSVDSVDAAADAARSNRVTVFPIGIGDRYDAAQLRILAGPAGDSNVVKLQRIEDLPTMVTLGNSFLHKLCSG
Take B1: the “affinity to collagen relative to that of A1” value in test [2] amounted to 10 times.

The values above are taken from article PMC4553094 (Thrombosis research, 2015).
